According to patent publication US20250215403A1, “Compositions and Methods for Cardiac Tissue Regeneration” (Temple University - Of The Commonwealth System Of Higher …, priority 2022, published 2025):

Key:
[1] = test system: NRVM (neonatal rat ventricular CMs); test: NRVM transfection (modRNA, siRNA, PH755): CM cell cycle markers and CM number; type: cell-based
Experimental: In vivo transfection of modRNA was done as described previously in a recent method paper (Magadum A., et al., Circulation. 2020, 141 (15): 1249-1265; Sultana N., et al., Mol Ther, 2017, 25 (6): 1306-1315) using sucrose citrate buffer containing 10 μl of sucrose in nuclease-free water (0.3 g/ml), 10 μl of citrate (0.1M pH-7; Sigma) mixed with 10 μl of different concentrations of modRNA in saline to a total volume of 30 μl. Immediately after LAD ligation, mice received an intra-myocardial injection of modRNA (100 μg) in total volume of 30 μL at 3 different sites (mid-anterior×2 places and apical anterior) in the peri-infarct area (Magadum A., et al., Circulation. 2020, 141 (15): 1249-1265; Magadum, A., et al., 2021, Advanced Science, 9:2004661). For in vitro transfection, RNAiMAX transfection reagent (Life Technologies) was used according to manufacturer's recommendation (Magadum A., et al., Circulation. 2020, 141 (15): 1249-1265; Sultana N., et al., Mol Ther, 2017, 25 (6): 1306-1315).
Mice hearts were harvested, weighed, and fixed in 4% PFA/PBS overnight on shaker and then washed with PBS for 1 hour and incubated in 30% sucrose/PBS at 4° C. for 12-18 hours. Hearts were then fixed in OCT and frozen at −80° C. (Magadum A., et al., Circulation. 2020, 141 (15): 1249-1265). Transverse heart sections (6-8 μm) were made using a cryostat. Frozen sections were rehydrated in PBS for 5-10 min followed by permeabilization with PBS with 0.1% Triton™ X100 (PBST) for 7-8 min. Heart sections were then treated with 3% H2O2 for 5 min and washed (3×5 min) with PBST. The samples were then blocked with PBS+10% Donkey normal serum+0.1% Triton™ X100 (PBSST) for 1 hour at room temperature. Primary antibodies (see complete list of primary antibodies used for this Example in Table 2 below) diluted in PBST were added and incubated overnight at 4° C. Slides were washed with PBST (3×5 min) followed by incubation with a secondary antibody (Invitrogen, 1:200) diluted in PBST for 90-120 min at room temperature. The samples were further washed with PBST (3×5 min) and stained with DAPI or Hoechst 33342 (1 μg/ml) diluted in PBST for 7 min. […] For immunostaining with wheat germ agglutinin (WGA) for CM size quantification, images were captured at 40× magnification, and ImageJ was used to determine the area of each cell. Quantitative analyses involved counting of multiple fields from 5-8 mouse hearts per group, and 3-4 sections/heart (˜50 cells per field assessed, for a total ˜250 cells per sample). […] BrdU positive CMs were counted in multiple fields from three independent samples per group and 3 sections/heart. The total number of CMs counted was ˜1-1.5×10^3 CMs per section. […]

[2] = test system: cell cycle markers; test: qPCR of cell-cycle-promoting genes and cell-cycle inhibitors in heart post-MI; type: in vivo, mouse; conditions: 2 days post-MI; compared to Luc modRNA
Experimental: Total RNA was isolated using TRIzol™ RNA isolation and RNeasy® (Qiagen) then reverse transcribed with High-Capacity cDNA Reverse Transcription Kit (Applied Biosystems), according to the manufacturer's instructions. Real-time qPCR analyses were performed on a StepOnePlus™ Real-Time PCR System using SYBR™ Green (Applied Biosystems). The primer sequences were synthesized by IDT (see Table 4 below). Data were normalized to 18s expression, where appropriate (endogenous controls). Fold-changes in gene expression were determined by the […] method and were presented relative to an internal control.

[3] = test system: GSK3β; test: Western blot of Ser9 phosphorylation of GSK3β in NRVM; type: cell-based, rat; conditions: compared to Luc modRNA
Experimental: Total protein was isolated from the respective cells or tissues at given time points. In brief, equal amounts of protein were resolved by SDS-PAG Electrophoresis system in 4%-15% Mini-PROTEAN TGX stain-free gels (Bio-Rad) and blotted onto nitrocellulose membranes (Bio-Rad). The membranes were blocked in Intercept® (TBS) blocking buffer (LI-COR) diluted 1:1 with PBS for 1 hour at room temperature and washed with PBST (1% Tween® 20, pH 7.4) for 10 min. Primary antibodies diluted in blocking buffer were added and incubated overnight at 4° C. Anti-PSAT1 (1:1,000, Invitrogen, #PA5-22124), anti-Flotillin 1 (1:1,000, Cell Signaling, #3253), anti-pSer9GSK3B (1:1,000, Cell Signaling, #9336), anti-GSK3B (1:1,000, Cell Signaling, #9315), and anti-β-actin (1:1000, Santa Cruz, #sc-47778) antibodies were used. The next day, membranes were washed with PBST (3×10 min). Anti-rabbit and anti-mouse IRDye 800CW secondary antibodies (LI-COR) were applied for 1 hr at room temperature. The membranes were washed with PBST (3×10 min) and antigen or antibody complexes were visualized and quantified using Odyssey Fc Imaging System (LI-COR Biosciences, model number 2800).

B1: PSAT1 modRNA: modified mRNA with N1-methylpseudouridine, transcribed in vitro, encoding phosphoserine aminotransferase 1 (ORF SEQ ID NO: 1, RNA SEQ ID NO: 2) (nucleic acid)
chain: AUGGAAGCCACCAAGCAAGUGGUUAACUUUGGGCCCGGGCCUGCCAAGCUGCCACACUCGGUAUUGUUGGAGAUCCAGAAGCAGCUACUAGACUACAGAGGACUCGGCAUCAGUGUGCUCGAAAUGAGUCACAGGUCAUCAGAUUUUGCCAAGAUUAUUGGCAAUACAGAGAAUCUUGUGAGGGAAUUGCUAGCUGUUCCCAACAACUACAAGGUGAUCUUUGUACAAGGAGGUGGGUCUGGCCAGUUCAGUGCUGUCCCCUUAAAUCUGAUUGGCCUGAAAGCUGGAAGGAGUGCUGACUACGUGGUGACCGGAGCUUGGUCAGCUAAGGCUGCGGAAGAAGCCAAGAAGUUUGGAACGGUGAACAUUGUCCACCCUAAACUUGGAAGUUACACAAAAAUUCCAGACCCAAGCACCUGGAACCUCAACCCGGACGCCUCCUAUGUAUACUUCUGUGCAAACGAGACUGUGCACGGGGUGGAGUUUGACUUCGUACCUGACGUCAAGGGAGCGGUGCUGGUCUGUGACAUGUCCUCAAACUUCUUAUCCAGGCCGGUGGAUGUUUCCAAGUUUGGUGUGAUUUUCGCUGGUGCUCAGAAGAAUGUUGGCUCUGCCGGGGUGACGGUGGUGAUUGUCCGGGAUGACCUGCUGGGGUUCUCGCUCAGAGAGUGCCCAUCAGUCCUUGACUACAAAGUGCAGGCUGGGAACAACUCUUUGUAUAACACACCUCCGUGCUUCAGCAUCUACGUCAUGGGCAUGGUCCUGGAAUGGAUCAAGAACAACGGCGGGGCCGCAGCCAUGGAGAAGCUCAGCUCCAUCAAAUCCCAAAUGAUUUAUGAGAUCAUUGAUAAUUCUCAAGGAUUUUAUGUAUGCCCAGUGGAGCGCCAGAAUAGAAGCAGGAUGAACAUCCCAUUUCGCAUUGGCAACGCCAAAGGAGACGAAGCUUUGGAAAAGCGGUUUCUUGACAAGGCGGUAGAACUCAACAUGAUCUCCUUGAAGGGGCACAGGUCAGUGGGAGGCAUUCGUGCCUCUCUGUAUAACGCUGUCACAACCGAAGACGUUGAGAAGCUGGCGGCCUUCAUGAAGAAUUUCUUGGAGAUGCAUCAGCUGUGA
modifications: N1-methylpseudouridine
CM mitosis (pH3+) ([1]; NRVM, after 3 days, vs Luc modRNA): significantly induced
CM number ([1]; NRVM, in 5 days, vs Luc modRNA): increased
CM cell cycle restriction under SSP inhibition ([1]; NRVM, PSAT1 modRNA plus PH755 10 μM, compared to control, significantly lower rate than PSAT1 modRNA alone): partially reversed
dedifferentiation of CMs ([1]; post-PSAT1 modRNA expression): Increased
expression of positive cell cycle markers [2]: induced
negative regulators of cell cycle markers [2]: inhibiting
phosphorylation of GSK3β at Ser9 [3]: induces
